Data on four molecules can be found in article PMC9482650, “Quantitative fragmentomics allow affinity mapping of interactomes” (Nature Communications, 2022).

Some targets named below: AHNAK1, Q09666; DLG1_2, Q12959; Inadl_2, Q8NI35; MAGI1_1, Q96QZ7; Inadl_8, Q8NI35; Inadl_3, Q8NI35; GRID2IP_2, A4D2P6; SNX27, Q96L92; MAGI2_4, Q86UL8.
What all share (test): holdup assay
Holding throughout (set-up): key: below the threshold = too weak to quantify, mostly under pKd 3.1 to 4

The target in a further assay is T1, DLG3_3, Q92796.
T1 sequence (Q92796 374-475, limits assumed, looked up): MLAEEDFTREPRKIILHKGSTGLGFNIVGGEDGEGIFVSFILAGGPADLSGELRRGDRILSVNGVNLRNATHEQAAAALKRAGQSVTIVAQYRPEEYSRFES

For the next assay, the target named is T2, APBA2_1, Q99767.
T2 sequence (Q99767 563-664, limits assumed, looked up): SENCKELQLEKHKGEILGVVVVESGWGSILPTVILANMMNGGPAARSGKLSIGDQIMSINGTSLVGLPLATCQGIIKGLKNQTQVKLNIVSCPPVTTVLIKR

Another assay concerns the target T3, PDZD2_2, O15018.
T3 sequence (O15018 329-429, limits assumed, looked up): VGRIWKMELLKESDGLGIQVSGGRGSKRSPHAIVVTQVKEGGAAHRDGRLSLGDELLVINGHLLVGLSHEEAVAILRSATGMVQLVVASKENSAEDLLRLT

The target in another assay is T4, TJP3_3, O95049.
T4 sequence (O95049 375-456, limits assumed, looked up): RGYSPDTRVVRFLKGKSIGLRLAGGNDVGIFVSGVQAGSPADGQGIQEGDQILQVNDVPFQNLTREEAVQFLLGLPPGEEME

In the next assay the target is T5, GRIP1_2, Q9Y3R0.
T5 sequence (Q9Y3R0 145-248, limits assumed, looked up): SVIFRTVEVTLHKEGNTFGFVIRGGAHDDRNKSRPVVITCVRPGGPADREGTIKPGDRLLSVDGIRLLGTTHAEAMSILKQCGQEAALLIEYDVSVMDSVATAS

A further assay concerns the target T6, PDZD7_3, Q9H5P4.
T6 sequence (Q9H5P4 857-944, limits assumed, looked up): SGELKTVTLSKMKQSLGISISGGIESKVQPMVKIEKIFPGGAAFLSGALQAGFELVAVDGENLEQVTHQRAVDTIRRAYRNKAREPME

The target of the next assay is T7, LIN7B, Q9HAP6.
T7 sequence (Q9HAP6 88-185, limits assumed, looked up): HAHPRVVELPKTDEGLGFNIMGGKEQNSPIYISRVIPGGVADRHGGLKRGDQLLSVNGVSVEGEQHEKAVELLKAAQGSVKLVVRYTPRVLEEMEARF

A further assay has as its target T8, RADIL, Q96JH8.
T8 sequence (Q96JH8 971-1071, limits assumed, looked up): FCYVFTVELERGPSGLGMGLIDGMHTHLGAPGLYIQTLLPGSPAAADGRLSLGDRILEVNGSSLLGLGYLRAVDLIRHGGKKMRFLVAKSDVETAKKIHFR

The target in another assay is T9, DFNB31_3, Q9P202.
T9 sequence (Q9P202 811-907, limits assumed, looked up): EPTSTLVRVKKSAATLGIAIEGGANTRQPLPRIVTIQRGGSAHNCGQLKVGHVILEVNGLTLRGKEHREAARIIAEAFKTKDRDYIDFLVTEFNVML

The next assay has as its target T10, SIPA1L2, Q9P2F8.
T10 sequence (Q9P2F8 945-1036, limits assumed, looked up): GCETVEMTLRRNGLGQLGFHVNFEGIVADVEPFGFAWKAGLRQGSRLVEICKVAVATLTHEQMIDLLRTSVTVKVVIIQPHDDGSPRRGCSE

In the next assay the target is T11, SYNJ2BP, P57105.
T11 sequence (P57105 8-110, limits assumed, looked up): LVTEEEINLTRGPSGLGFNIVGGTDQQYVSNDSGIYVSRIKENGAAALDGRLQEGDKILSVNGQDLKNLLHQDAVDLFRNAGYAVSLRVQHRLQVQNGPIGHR

Another assay has as its target T12, DFNB31_2, Q9P202.
T12 sequence (Q9P202 274-371, limits assumed, looked up): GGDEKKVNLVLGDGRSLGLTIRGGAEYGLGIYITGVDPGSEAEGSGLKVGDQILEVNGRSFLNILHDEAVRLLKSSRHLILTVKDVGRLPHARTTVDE

The target of another assay is T13, APBA1_2, Q02410.
T13 sequence (Q02410 742-832, limits assumed, looked up): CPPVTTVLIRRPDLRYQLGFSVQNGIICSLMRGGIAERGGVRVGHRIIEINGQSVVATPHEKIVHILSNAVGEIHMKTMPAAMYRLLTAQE

The next assay addresses T14, HTRA3, P83110.
T14 sequence (P83110 354-453, limits assumed, looked up): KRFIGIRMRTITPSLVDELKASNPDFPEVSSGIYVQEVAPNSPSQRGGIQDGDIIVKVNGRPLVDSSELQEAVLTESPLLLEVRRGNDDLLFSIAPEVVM

[1] abbreviates: plain residues with an end cap or a label only (N-terminal biotin on a linker: gsgsgs; C-terminal amide).
Where [2] appears, read: plain residues with an end cap or a label only (N-terminal biotin on a linker: ttds).
The mark [3] stands for this setting: plain residues with an end cap or a label only (N-terminal biotin on a linker: ahx).

Chain of GRID2IP_2, A4D2P6 (A4D2P6 272-370): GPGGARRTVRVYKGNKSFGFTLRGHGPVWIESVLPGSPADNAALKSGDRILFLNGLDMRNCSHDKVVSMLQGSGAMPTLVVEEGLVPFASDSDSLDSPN
Chain of Inadl_3, Q8NI35 (Q8NI35 359-469): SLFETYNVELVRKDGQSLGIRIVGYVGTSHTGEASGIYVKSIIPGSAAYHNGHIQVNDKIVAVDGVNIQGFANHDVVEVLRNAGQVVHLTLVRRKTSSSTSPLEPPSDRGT
Chain of AHNAK1, Q09666 (Q09666 4-100): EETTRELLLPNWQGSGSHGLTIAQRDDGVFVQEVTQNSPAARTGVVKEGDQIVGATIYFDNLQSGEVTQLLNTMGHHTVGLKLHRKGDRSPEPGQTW
Chain of MAGI2_4, Q86UL8 (Q86UL8 772-865): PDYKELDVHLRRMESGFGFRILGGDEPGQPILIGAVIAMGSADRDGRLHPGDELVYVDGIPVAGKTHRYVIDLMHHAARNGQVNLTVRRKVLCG
Chain of MAGI1_1, Q96QZ7 (Q96QZ7 1-106): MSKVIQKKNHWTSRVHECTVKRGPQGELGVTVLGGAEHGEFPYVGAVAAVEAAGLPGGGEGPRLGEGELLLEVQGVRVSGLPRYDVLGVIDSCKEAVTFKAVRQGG
Chain of DLG1_2, Q12959 (Q12959 314-412): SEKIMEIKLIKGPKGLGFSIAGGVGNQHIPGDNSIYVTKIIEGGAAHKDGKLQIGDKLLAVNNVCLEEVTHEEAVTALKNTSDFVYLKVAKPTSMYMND
Chain of Inadl_8, Q8NI35 (Q8NI35 1425-1530): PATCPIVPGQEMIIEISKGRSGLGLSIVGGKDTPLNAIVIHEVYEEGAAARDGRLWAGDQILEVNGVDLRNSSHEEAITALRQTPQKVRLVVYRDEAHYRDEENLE
Chain of Inadl_2, Q8NI35 (Q8NI35 238-335): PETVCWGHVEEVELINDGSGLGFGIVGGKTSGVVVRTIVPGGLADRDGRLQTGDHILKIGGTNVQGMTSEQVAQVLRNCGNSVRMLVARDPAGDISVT

In the case of TLSLTDSSVDGIPPYR [AXIN1_int, O15169], the negative logarithm of the Kd (pKd) (in general, −log10 of the Kd, conventionally taken in molar units) with DLG3_3, Q92796 (setting [1]) is reported as “below the threshold”; with AHNAK1, Q09666 (setting [1]), “below the threshold”; with DLG1_2, Q12959 (setting [1]) it was “below the threshold”; in the assay with APBA2_1, Q99767 (setting [1]) it was “below the threshold”; in the assay with PDZD2_2, O15018 (setting [1]) it was “below the threshold”; with TJP3_3, O95049 (setting [1]) it was “below the threshold”. For the same molecule, the pKd result is recorded as “below the threshold” with Inadl_2, Q8NI35 (setting [1]); “below the threshold” with MAGI1_1, Q96QZ7 (setting [1]); “below the threshold” with GRIP1_2, Q9Y3R0 (setting [1]); “below the threshold” with Inadl_8, Q8NI35 (setting [1]); “below the threshold” in the assay with PDZD7_3, Q9H5P4 (setting [1]); “below the threshold” with Inadl_3, Q8NI35 (setting [1]). Also, the pKd entry with GRID2IP_2, A4D2P6 (setting [1]) was “below the threshold”; with LIN7B, Q9HAP6 (setting [1]) it was 3.72; with RADIL, Q96JH8 (setting [1]), “below the threshold”; in the assay with DFNB31_3, Q9P202 (setting [1]), 3.91; in the assay with SIPA1L2, Q9P2F8 (setting [1]) it was “below the threshold”; in the assay with SYNJ2BP, P57105 (setting [1]), 4.52. Moreover, the pKd entry is given as “below the threshold” with SNX27, Q96L92 (setting [1]); “below the threshold” in the assay with MAGI2_4, Q86UL8 (setting [1]); “below the threshold” with DFNB31_2, Q9P202 (setting [1]); “below the threshold” with APBA1_2, Q02410 (setting [1]); “below the threshold” in the assay with HTRA3, P83110 (setting [1]).

As to IYVPEAQTRL [DLGAP4, Q9Y2H0], the negative-log Kd (pKd) entry in the assay with DLG3_3, Q92796 (setting [2]) is on record as “below the threshold”; with AHNAK1, Q09666 (setting [2]), “below the threshold”; with DLG1_2, Q12959 (setting [2]), “below the threshold”; in the assay with APBA2_1, Q99767 (setting [2]) it was “below the threshold”; in the assay with PDZD2_2, O15018 (setting [2]), “below the threshold”; in the assay with TJP3_3, O95049 (setting [2]), “below the threshold”. In addition, the pKd result with Inadl_2, Q8NI35 (setting [2]) is “below the threshold”; in the assay with MAGI1_1, Q96QZ7 (setting [2]), “below the threshold”; with GRIP1_2, Q9Y3R0 (setting [2]) it was “below the threshold”; in the assay with Inadl_8, Q8NI35 (setting [2]), “below the threshold”; with PDZD7_3, Q9H5P4 (setting [2]), 4.31; with Inadl_3, Q8NI35 (setting [2]) it was “below the threshold”. In addition, the negative logarithm of the Kd (pKd) with GRID2IP_2, A4D2P6 (setting [2]) was 4.08; with LIN7B, Q9HAP6 (setting [2]), “below the threshold”; in the assay with RADIL, Q96JH8 (setting [2]) it was “below the threshold”; with DFNB31_3, Q9P202 (setting [2]), “below the threshold”; with SIPA1L2, Q9P2F8 (setting [2]), “below the threshold”; in the assay with SYNJ2BP, P57105 (setting [2]), “below the threshold”. The pKd with SNX27, Q96L92 (setting [2]) was 5.41; in the assay with MAGI2_4, Q86UL8 (setting [2]), “below the threshold”; with DFNB31_2, Q9P202 (setting [2]), “below the threshold”; with APBA1_2, Q02410 (setting [2]), 3.64; in the assay with HTRA3, P83110 (setting [2]), “below the threshold”.

Regarding SSRTRRETQL [HPV16-E6, P03126], the pKd is 4.88 with DLG3_3, Q92796 (setting [2]); “below the threshold” in the assay with AHNAK1, Q09666 (setting [2]); 5.06 with DLG1_2, Q12959 (setting [2]); “below the threshold” with APBA2_1, Q99767 (setting [2]); “below the threshold” with PDZD2_2, O15018 (setting [2]); 3.68 with TJP3_3, O95049 (setting [2]). For the same molecule, the pKd result with Inadl_2, Q8NI35 (setting [2]) was “below the threshold”; in the assay with MAGI1_1, Q96QZ7 (setting [2]), 3.5; in the assay with GRIP1_2, Q9Y3R0 (setting [2]) it was “below the threshold”; in the assay with Inadl_8, Q8NI35 (setting [2]), “below the threshold”; with PDZD7_3, Q9H5P4 (setting [2]), 4.68; with Inadl_3, Q8NI35 (setting [2]), “below the threshold”. In addition, the pKd with GRID2IP_2, A4D2P6 (setting [2]) is 3.86; with LIN7B, Q9HAP6 (setting [2]), 3.91; in the assay with RADIL, Q96JH8 (setting [2]), 3.65; in the assay with DFNB31_3, Q9P202 (setting [2]), “below the threshold”; in the assay with SIPA1L2, Q9P2F8 (setting [2]) it was “below the threshold”; with SYNJ2BP, P57105 (setting [2]) it was 5.18. For the same molecule, the pKd in the assay with SNX27, Q96L92 (setting [2]) was 4.91; with MAGI2_4, Q86UL8 (setting [2]), 3.89; in the assay with DFNB31_2, Q9P202 (setting [2]), “below the threshold”; with APBA1_2, Q02410 (setting [2]), “below the threshold”; with HTRA3, P83110 (setting [2]), “below the threshold”.

Take HTHSYIETHV [CNKSR2, Q8WXI2]: the pKd with DLG3_3, Q92796 (setting [3]) is 4.01; with AHNAK1, Q09666 (setting [3]) it was “below the threshold”; in the assay with DLG1_2, Q12959 (setting [3]), 5.1; with APBA2_1, Q99767 (setting [3]) it was “below the threshold”; with PDZD2_2, O15018 (setting [3]), 4.24; in the assay with TJP3_3, O95049 (setting [3]) it was “below the threshold”. For the same molecule, the negative-log Kd (pKd) result is “below the threshold” with Inadl_2, Q8NI35 (setting [3]); “below the threshold” in the assay with MAGI1_1, Q96QZ7 (setting [3]); “below the threshold” with GRIP1_2, Q9Y3R0 (setting [3]); “below the threshold” with Inadl_8, Q8NI35 (setting [3]); 4.51 with PDZD7_3, Q9H5P4 (setting [3]); 3.66 with Inadl_3, Q8NI35 (setting [3]). Moreover, the pKd entry was “below the threshold” with GRID2IP_2, A4D2P6 (setting [3]); “below the threshold” with LIN7B, Q9HAP6 (setting [3]); 4.22 with RADIL, Q96JH8 (setting [3]); “below the threshold” in the assay with DFNB31_3, Q9P202 (setting [3]); “below the threshold” with SIPA1L2, Q9P2F8 (setting [3]); 5.02 with SYNJ2BP, P57105 (setting [3]). Further, the pKd is 5.7 with SNX27, Q96L92 (setting [3]); “below the threshold” in the assay with MAGI2_4, Q86UL8 (setting [3]); 3.76 with DFNB31_2, Q9P202 (setting [3]); 4.16 in the assay with APBA1_2, Q02410 (setting [3]); “below the threshold” with HTRA3, P83110 (setting [3]).
